Patent US20110263827A1 (AbbVie / Abbott, published 2011)

Tests used:
[1] = target: T1, EGFR (UniProt P00533 25-645, limits assumed, biotinylated); experiment: direct bind ELISA, C-term VD;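 further: ELISA with antibody or DVD-Ig preparations applied to target antigen-coated plates for 1 h at room temperature, TMB colour development, absorbance read at 450 nm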
T1 construct: ELISA antigen; construct not described

[2] = target: T2, IGF1R (UniProt P08069 31-932, limits assumed, biotinylated); experiment: direct bind ELISA, N-term VD;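 further: antibody or DVD-Ig preparations bound to immobilized target antigen on ELISA plates, 1 h at room temperature, TMB detection read as absorbance at 450 nm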
T2 construct: ELISA antigen

[3] = target: T3, HGF (UniProt P14210 32-728, limits assumed, biotinylated); experiment: direct bind ELISA, N-term VD;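 further: antibody or DVD-Ig preparations bound to immobilized target antigen on ELISA plates, 1 h at room temperature, TMB detection read as absorbance at 450 nm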
T3 construct: ELISA antigen

[4] = target: T3, HGF; experiment: direct bind ELISA, C-term VD;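 further: ELISA with antibody or DVD-Ig preparations applied to target antigen-coated plates for 1 h at room temperature, TMB colour development, absorbance read at 450 nm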
[5] = target: T1, EGFR; experiment: direct bind ELISA, N-term VD;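 further: antibody or DVD-Ig preparations bound to immobilized target antigen on ELISA plates, 1 h at room temperature, TMB detection read as absorbance at 450 nm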
[6] = target: T4, DLL-4 (UniProt Q9NR61 27-524, limits assumed, biotinylated); experiment: direct bind ELISA, C-term VD;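 further: ELISA with antibody or DVD-Ig preparations applied to target antigen-coated plates for 1 h at room temperature, TMB colour development, absorbance read at 450 nm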
T4 construct: ELISA antigen

B1: DVD806 (bispecific antibody)
VH: EVQLLESGGGLVQPGGSLRLSCTASGFTFSSYAMNWVRQAPGKGLEWVSAISGSGGTTFYADSVKGRFTISRDNSRTTLYLQMNSLRAEDTAVYYCAKDLGWSDSYYYYYGMDVWGQGTTVTVSSASTKGPSVFPLAPQVQLQESGPGLVKPSQTLSLTCTVSGYSISSDFAWNWIRQPPGKGLEWMGYISYSGNTRYQPSLKSRITISRDTSKNQFFLKLNSVTAADTATYYCVTAGRGFPYWGQGTLVTVSS
VL: DIQMTQFPSSLSASVGDRVTITCRASQGIRNDLGWYQQKPGKAPKRLIYAASRLHRGVPSRFSGSGSGTEFTLTISSLQPEDFATYYCLQHNSYPCSFGQGTKLEIKRTVAAPDIQMTQSPSSMSVSVGDRVTITCHSSQDINSNIGWLQQKPGKSFKGLIYHGTNLDDGVPSRFSGSGSGTDYTLTISSLQPEDFATYYCVQYAQFPWTFGGGTKLEIKR
notes: DVD-Ig; HC L, LC S; variable parts only
- EC50 [1]: 53.8 nM
- EC50 [2]: 0.4 nM

B2: DVD334 (bispecific antibody)
VH: EVQLLESGGGLVQPGGSLRLSCTASGFTFSSYAMNWVRQAPGKGLEWVSAISGSGGTTFYADSVKGRFTISRDNSRTTLYLQMNSLRAEDTAVYYCAKDLGWSDSYYYYYGMDVWGQGTTVTVSSASTKGPQVQLQESGPGLVKPSQTLSLTCTVSGYSISSDFAWNWIRQPPGKGLEWMGYISYSGNTRYQPSLKSRITISRDTSKNQFFLKLNSVTAADTATYYCVTAGRGFPYWGQGTLVTVSS
VL: B1 VL
notes: DVD-Ig; HC S, LC S; variable parts only
- EC50 [1]: 137 nM
- EC50 [2]: 0.19 nM

B3: DVD336 (bispecific antibody)
VH: QVQLVESGGGLVKPGGSLRLSCAASGFTFSDYYMSWIRQAPGKGLEWVSYISSSGSTIYYADSVKGRFTISRDNAKNSLYLQMNSLRAEDTAVYYCARDEYNSGWYVLFDYWGQGTLVTVSSASTKGPQVQLQESGPGLVKPSQTLSLTCTVSGYSISSDFAWNWIRQPPGKGLEWMGYISYSGNTRYQPSLKSRITISRDTSKNQFFLKLNSVTAADTATYYCVTAGRGFPYWGQGTLVTVSS
VL: DIQMTQSPSSVSASVGDRVTITCRASQGISSWLAWYQQKPGKAPNLLIYEASSLQSGVPSRFGGSGSGTDFTLTISSLQPEDFATYYCQQANGFPWTFGQGTKVEIKRTVAAPDIQMTQSPSSMSVSVGDRVTITCHSSQDINSNIGWLQQKPGKSFKGLIYHGTNLDDGVPSRFSGSGSGTDYTLTISSLQPEDFATYYCVQYAQFPWTFGGGTKLEIKR
notes: as for B2
- EC50 [1]: 332 nM
- EC50 [3]: 0.15 nM

B4: DVD778 (bispecific antibody)
VH: QVQLVESGGGLVKPGGSLRLSCAASGFTFSDYYMSWIRQAPGKGLEWVSYISSSGSTIYYADSVKGRFTISRDNAKNSLYLQMNSLRAEDTAVYYCARDEYNSGWYVLFDYWGQGTLVTVSSASTKGPSVFPLAPQVQLQESGPGLVKPSQTLSLTCTVSGYSISSDFAWNWIRQPPGKGLEWMGYISYSGNTRYQPSLKSRITISRDTSKNQFFLKLNSVTAADTATYYCVTAGRGFPYWGQGTLVTVSS
VL: DIQMTQSPSSVSASVGDRVTITCRASQGISSWLAWYQQKPGKAPNLLIYEASSLQSGVPSRFGGSGSGTDFTLTISSLQPEDFATYYCQQANGFPWTFGQGTKVEIKRTVAAPSVFIFPPDIQMTQSPSSMSVSVGDRVTITCHSSQDINSNIGWLQQKPGKSFKGLIYHGTNLDDGVPSRFSGSGSGTDYTLTISSLQPEDFATYYCVQYAQFPWTFGGGTKLEIKR
notes: DVD-Ig; HC L, LC L; variable parts only
- EC50 [1]: 50.3 nM
- EC50 [3]: 0.17 nM

B5: DVD808 (bispecific antibody)
VH: B4 VH
VL: B3 VL
notes: as for B1
- EC50 [1]: 96.4 nM
- EC50 [3]: 0.14 nM

B6: DVD838 (bispecific antibody)
VH: B3 VH
VL: B4 VL
notes: DVD-Ig; HC S, LC L; variable parts only
- EC50 [1]: 57.7 nM
- EC50 [3]: 0.19 nM

B7: DVD335 (bispecific antibody)
VH: QVQLQESGPGLVKPSQTLSLTCTVSGYSISSDFAWNWIRQPPGKGLEWMGYISYSGNTRYQPSLKSRITISRDTSKNQFFLKLNSVTAADTATYYCVTAGRGFPYWGQGTLVTVSSASTKGPQVQLVESGGGLVKPGGSLRLSCAASGFTFSDYYMSWIRQAPGKGLEWVSYISSSGSTIYYADSVKGRFTISRDNAKNSLYLQMNSLRAEDTAVYYCARDEYNSGWYVLFDYWGQGTLVTVSS
VL: DIQMTQSPSSMSVSVGDRVTITCHSSQDINSNIGWLQQKPGKSFKGLIYHGTNLDDGVPSRFSGSGSGTDYTLTISSLQPEDFATYYCVQYAQFPWTFGGGTKLEIKRTVAAPDIQMTQSPSSVSASVGDRVTITCRASQGISSWLAWYQQKPGKAPNLLIYEASSLQSGVPSRFGGSGSGTDFTLTISSLQPEDFATYYCQQANGFPWTFGQGTKVEIKR
notes: as for B2
- EC50 [4]: 159 nM
- EC50 [5]: 3.77 nM

B8: DVD781 (bispecific antibody)
VH: QVQLQESGPGLVKPSQTLSLTCTVSGYSISSDFAWNWIRQPPGKGLEWMGYISYSGNTRYQPSLKSRITISRDTSKNQFFLKLNSVTAADTATYYCVTAGRGFPYWGQGTLVTVSSASTKGPSVFPLAPEVQLVESGGGLVQPGGSLRLSCAASGFTFTDNWISWVRQAPGKGLEWVGYISPNSGFTYYADSVKGRFTISADTSKNTAYLQMNSLRAEDTAVYYCARDNFGGYFDYWGQGTLVTVSS
VL: DIQMTQSPSSMSVSVGDRVTITCHSSQDINSNIGWLQQKPGKSFKGLIYHGTNLDDGVPSRFSGSGSGTDYTLTISSLQPEDFATYYCVQYAQFPWTFGGGTKLEIKRTVAAPSVFIFPPDIQMTQSPSSLSASVGDRVTITCRASQDVSTAVAWYQQKPGKAPKLLIYSASFLYSGVPSRFSGSGSGTDFTLTISSLQPEDFATTYYCQQSYTGTVTFGQGTKVEIKR
notes: as for B4
- EC50 [6]: 0.42 nM
- EC50 [5]: 4.19 nM

B9: DVD811 (bispecific antibody)
VH: B8 VH
VL: DIQMTQSPSSMSVSVGDRVTITCHSSQDINSNIGWLQQKPGKSFKGLIYHGTNLDDGVPSRFSGSGSGTDYTLTISSLQPEDFATYYCVQYAQFPWTFGGGTKLEIKRTVAAPDIQMTQSPSSLSASVGDRVTITCRASQDVSTAVAWYQQKPGKAPKLLIYSASFLYSGVPSRFSGSGSGTDFTLTISSLQPEDFATTYYCQQSYTGTVTFGQGTKVEIKR
notes: as for B1
- EC50 [6]: 0.99 nM
- EC50 [5]: 3.45 nM

B10: DVD777 (bispecific antibody)
VH: QVQLQESGPGLVKPSQTLSLTCTVSGYSISSDFAWNWIRQPPGKGLEWMGYISYSGNTRYQPSLKSRITISRDTSKNQFFLKLNSVTAADTATYYCVTAGRGFPYWGQGTLVTVSSASTKGPSVFPLAPQVQLVESGGGLVKPGGSLRLSCAASGFTFSDYYMSWIRQAPGKGLEWVSYISSSGSTIYYADSVKGRFTISRDNAKNSLYLQMNSLRAEDTAVYYCARDEYNSGWYVLFDYWGQGTLVTVSS
VL: DIQMTQSPSSMSVSVGDRVTITCHSSQDINSNIGWLQQKPGKSFKGLIYHGTNLDDGVPSRFSGSGSGTDYTLTISSLQPEDFATYYCVQYAQFPWTFGGGTKLEIKRTVAAPSVFIFPPDIQMTQSPSSVSASVGDRVTITCRASQGISSWLAWYQQKPGKAPNLLIYEASSLQSGVPSRFGGSGSGTDFTLTISSLQPEDFATYYCQQANGFPWTFGQGTKVEIKR
notes: as for B4
- EC50 [4]: 0.96 nM
- EC50 [5]: 5.13 nM

B11: DVD807 (bispecific antibody)
VH: B10 VH
VL: B7 VL
notes: as for B1
- EC50 [4]: 9.24 nM
- EC50 [5]: 4.85 nM

B12: DVD837 (bispecific antibody)
VH: B7 VH
VL: B10 VL
notes: as for B6
- EC50 [4]: 1.29 nM
- EC50 [5]: 4.51 nM

B13: DVD836 (bispecific antibody)
VH: B2 VH
VL: DIQMTQFPSSLSASVGDRVTITCRASQGIRNDLGWYQQKPGKAPKRLIYAASRLHRGVPSRFSGSGSGTEFTLTISSLQPEDFATYYCLQHNSYPCSFGQGTKLEIKRTVAAPSVFIFPPDIQMTQSPSSMSVSVGDRVTITCHSSQDINSNIGWLQQKPGKSFKGLIYHGTNLDDGVPSRFSGSGSGTDYTLTISSLQPEDFATYYCVQYAQFPWTFGGGTKLEIKR
notes: as for B6
- EC50 [1]: 56.8 nM
- EC50 [2]: 0.51 nM
